Experimental data taken from patent US20200306373A1 (Hoffmann-La Roche, published 2020).

T1: human ICOS (human, UniProt Q9Y6W8 21-199)
T1 sequence: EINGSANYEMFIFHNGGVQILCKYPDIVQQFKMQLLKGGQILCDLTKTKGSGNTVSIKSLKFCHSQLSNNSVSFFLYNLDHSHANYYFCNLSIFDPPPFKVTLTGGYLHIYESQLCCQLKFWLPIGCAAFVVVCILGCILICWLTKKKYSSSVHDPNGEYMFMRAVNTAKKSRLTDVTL

T2: human CEA (human, UniProt P06731 35-685)
T2 construct: Endogenous CEA on MKN45 human gastric adenocarcinoma cells; also called Carcinoembryonic antigen; CEACAM5
T2 sequence: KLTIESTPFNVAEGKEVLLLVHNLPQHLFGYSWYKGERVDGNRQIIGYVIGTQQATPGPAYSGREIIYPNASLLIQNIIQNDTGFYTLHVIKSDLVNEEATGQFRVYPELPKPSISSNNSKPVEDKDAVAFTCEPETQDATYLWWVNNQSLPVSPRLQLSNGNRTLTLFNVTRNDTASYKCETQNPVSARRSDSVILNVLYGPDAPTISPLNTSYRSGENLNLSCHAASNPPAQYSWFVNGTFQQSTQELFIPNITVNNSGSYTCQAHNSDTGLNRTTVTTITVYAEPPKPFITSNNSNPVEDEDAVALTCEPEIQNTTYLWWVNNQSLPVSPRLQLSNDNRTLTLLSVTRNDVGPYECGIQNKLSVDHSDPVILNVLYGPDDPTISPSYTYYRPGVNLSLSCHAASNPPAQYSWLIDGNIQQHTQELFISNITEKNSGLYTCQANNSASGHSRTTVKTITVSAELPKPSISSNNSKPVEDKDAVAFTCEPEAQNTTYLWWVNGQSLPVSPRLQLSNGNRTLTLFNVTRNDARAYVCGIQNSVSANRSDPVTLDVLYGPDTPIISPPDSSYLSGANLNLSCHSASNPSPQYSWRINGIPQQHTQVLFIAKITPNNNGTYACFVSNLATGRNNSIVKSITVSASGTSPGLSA

B1: anti-ICOS 16E09 IgG1 P329G LALA antibody (antibody, V domains shown)
VH: EVQLVQSGAEVKKPGESLKISCKGSGYSFTSYWIGWVRQMPGKGLEWMGIIYPGDSDTRYSPSFQGQVTISADKSISTAYLQWSSLKASDTAMYYCARSSGPYGLYLDYWGQGTLVTVSS
VL: not shown
notes: also called phage-derived ICOS-specific antibody 16E09
B2: FAP-ICOS_1+1, huIgG1 P329G LALA, monovalent ICOS (JMAb136), monovalent FAP (4B9) (bispecific antibody)
heavy 1: not shown
light 1: DIQMTQSPSSVSASVGDRVTITCRASQGISRLLAWYQQKPGKAPKLLIYVASSLQSGVPSRFSGSGSGTDFTLTISSLQPEDFATYYCQQANSFPWTFGQGTKVEIKRTVAAPSVFIFPPSDRKLKSGTASVVCLLNNFYPREAKVQWKVDNALQSGNSQESVTEQDSKDSTYSLSSTLTLSKADYEKHKVYACEVTHQGLSSPVTKSFNRGEC
heavy 2: EIVLTQSPGTLSLSPGERATLSCRASQSVTSSYLAWYQQKPGQAPRLLINVGSRRATGIPDRFSGSGSGTDFTLTISRLEPEDFAVYYCQQGIMLPPTFGQGTKVEIKSSASTKGPSVFPLAPSSKSTSGGTAALGCLVKDYFPEPVTVSWNSGALTSGVHTFPAVLQSSGLYSLSSVVTVPSSSLGTQTYICNVNHKPSNTKVDKKVEPKSCDKTHTCPPCPAPEAAGGPSVFLFPPKPKDTLMISRTPEVTCVVVDVSHEDPEVKFNWYVDGVEVHNAKTKPREEQYNSTYRVVSVLTVLHQDWLNGKEYKCKVSNKALGAPIEKTISKAKGQPREPQVCTLPPSRDELTKNQVSLSCAVKGFYPSDIAVEWESNGQPENNYKTTPPVLDSDGSFFLVSKLTVDKSRWQQGNVFSCSVMHEALHNHYTQKSLSLSP
light 2: EVQLLESGGGLVQPGGSLRLSCAASGFTFSSYAMSWVRQAPGKGLEWVSAIIGSGASTYYADSVKGRFTISRDNSKNTLYLQMNSLRAEDTAVYYCAKGWFGGFNYWGQGTLVTVSSASVAAPSVFIFPPSDEQLKSGTASVVCLLNNFYPREAKVQWKVDNALQSGNSQESVTEQDSKDSTYSLSSTLTLSKADYEKHKVYACEVTHQGLSSPVTKSFNRGEC
notes: also called ICOS-FAP 1+1; ICOS(JMab136)-FAP(4B9) 1 + 1
B3: ICOS(JMab136)-CEA(MEDI-565) 1+1, CEA-ICOS_1+1, huIgG1 P329G LALA, monovalent ICOS (JMAb136), monovalent CEA (MEDI-565) (bispecific antibody)
heavy 1: not shown
light 1: B2 light 1
heavy 2: not shown
light 2: EVQLVESGGGLVQPGRSLRLSCAASGFTVSSYWMHWVRQAPGKGLEWVGFIRNKANGGTTEYAASVKGRFTISRDDSKNTLYLQMNSLRAEDTAVYYCARDRGLRFYFDYWGQGTTVTVSSASVAAPSVFIFPPSDEQLKSGTASVVCLLNNFYPREAKVQWKVDNALQSGNSQESVTEQDSKDSTYSLSSTLTLSKADYEKHKVYACEVTHQGLSSPVTKSFNRGEC
notes: Human IgG1 P329G LALA, knob-into-hole; also called CEA(MEDI565)-ICOS(JMAb136)_1 + 1
B4: ICOS(JMab136)-CEA(MEDI-565) 2+1, CEA-ICOS_2+1 huIgG1 P329G LALA, bivalent ICOS (JMAb136), monovalent CEA (MEDI-565) (bispecific antibody)
heavy 1: not shown
heavy 2: not shown
light: B2 light 1
notes: Human IgG1 P329G LALA, knob-into-hole; also called CEA(MEDI565)-ICOS(JMAb136)_2 + 1
B5: DP47-ICOS_1+1, huIgG1 P329G LALA, monovalent ICOS (JMAb136), monovalent DP47 (bispecific antibody)
heavy 1: not shown
light 1: B2 light 1
heavy 2: not shown
light 2: not shown
notes: Untargeted control, human IgG1 P329G LALA; also called ICOS-DP47 control molecule; untargeted DP47-ICOS
B6: FAP-ICOS_1+1_HT, huIgG1 P329G LALA, monovalent ICOS (JMAb136), monovalent FAP (4B9) c-terminal fused of the heavy chain C region (bispecific antibody)
heavy 1: not shown
heavy 2: DKTHTCPPCPAPEAAGGPSVFLFPPKPKDTLMISRTPEVTCVVVDVSHEDPEVKFNWYVDGVEVHNAKTKPREEQYNSTYRVVSVLTVLHQDWLNGKEYKCKVSNKALGAPIEKTISKAKGQPREPQVCTLPPSRDELTKNQVSLSCAVKGFYPSDIAVEWESNGQPENNYKTTPPVLDSDGSFFLVSKLTVDKSRWQQGNVFSCSVMHEALHNHYTQKSLSLSPGGGGGSGGGGSGGGGSGGGGSEIVLTQSPGTLSLSPGERATLSCRASQSVTSSYLAWYQQKPGQAPRLLINVGSRRATGIPDRFSGSGSGTDFTLTISRLEPEDFAVYYCQQGIMLPPTFGQGTKVEIK
light: B2 light 1
notes: Human IgG1 P329G LALA, knob-into-hole; 4B9 VH and VL fused to the C-termini of the two Fc chains; also called ICOS-FAP 1+1 HT; 1+1 head-to-tail
B7: FAP-ICOS_2+1, huIgG1 P329G LALA, bivalent ICOS (JMAb136), monovalent FAP (4B9) (bispecific antibody)
heavy 1: not shown
heavy 2: not shown
light: B2 light 1
notes: Human IgG1 P329G LALA, knob-into-hole; also called ICOS-FAP 2+1; ICOS(JMab136)-FAP(4B9) 2 + 1
B8: DP47-ICOS_2+1, huIgG1 P329G LALA, bivalent ICOS (JMAb136), monovalent DP47 (bispecific antibody)
heavy 1: not shown
heavy 2: not shown
light: B2 light 1
notes: Untargeted control, human IgG1 P329G LALA, bivalent for ICOS; also called ICOS-DP47 control molecule; untargeted DP47-ICOS

Columns and labels:
[1] = target: T3, murine ICOS Fc(kih) Avi tag (murine, Avi tag, captured on a streptavidin chip); assay: SPR, Biacore T200, 25 C, murine ICOS Fc(kih) on streptavidin chip, antibody injected 1000-31.25 nM, 1:1 Langmuir
T3 construct: also called recombinant murine ICOS Fc(kih)
Protocol: Surface plasmon resonance experiments were performed on a Biacore T200 at 25° C. with HBS-EP as running buffer (0.01 M HEPES pH 7.4, 0.15 M NaCl, 0.005% (v/v) Surfactant P20 (GE Healthcare)).
The immobilization level was approximately 600 RU. […] The dissociation phase was monitored for 500 s and triggered by switching from the sample solution to HBS-EP. The chip surface was regenerated after every cycle using one injection of 10 mM Glycine pH 3.0 for 60 s.
The affinity constants were derived from the kinetic rate constants by fitting to a 1:1 Langmuir binding using the BIAeval software (GE Healthcare).

human ICOS [2] = target: T1, human ICOS; assay: cell-based or functional assay
[3] = target: T4, human fibroblast activating protein (huFAP) (human, UniProt Q12884 1-760); assay: flow cytometry on NIH/3T3-huFAP clone 19 cells
T4 construct: Expressed on NIH/3T3-huFAP clone 19 cells; also called human FAP; hFAP
Protocol: (§1) This cell line was generated by the transfection of the mouse embryonic fibroblast NIH/3T3 cell line (ATCC CRL-1658) with the expression vector pETR4921 to express huFAP under […] Puromycin selection.
(§2) The staining was fixed for 20 min at 4° C. in the dark, using 75 μl of 1% PFA in FACS buffer per well. Fluorescence was analyzed by FACS using a FACS Fortessa (Software FACS Diva). Binding curves were obtained using GraphPadPrism6 and are shown in FIGS. 6A-6C and 7A-7B, respectively.

human ICOS [4] = target: T1, human ICOS; assay: flow cytometry, activated human PBMCs, ICOS on CD4+ T cells
human ICOS [5] = target: T1, human ICOS; assay: flow cytometry, activated human PBMCs, ICOS on CD8+ T cells
[6] = target: T4, human fibroblast activating protein …; assay: flow cytometry on NIH/3T3-huFAP clone 19 cells (human FAP), PE anti-human secondary, median fluorescence intensity
Protocol: as §1, §2

human CEA = target: T2, human CEA; assay: flow cytometry on MKN45 cells (human CEA), Alexa Fluor 647 anti-human Fc secondary, frequency of A647+ cells
Protocol: Briefly, human PBMCs, isolated from either Buffy Coats or fresh blood from healthy human donors (as described in Example 5.1) were incubated in a humidified incubator at 37° C. for 48 hours in RPMI1640 medium including […] PHA-L (Roche, #11249738001) and 100 units/ml recombinant human IL-2 (“Proleukin”, Novartis) at a cell density of 1 million cells per ml.
At the day of the assay, pre-activated PBMCs cells were harvested, washed with PBS, and 0.2 million cells in FACS buffer (PBS with 0.1% BSA) were plated per well of a 96-round bottom-well plate. Likewise, adherent MKN45 tumor cells were detached using trypsin (Gibco, 25300-054), washed and 0.15 million cells were transferred into the 96-round bottom well-plate. […] Cells were washed with FACS buffer and the staining was fixed for 20 min at 4° C. in the dark, using 75 µl of 1% PFA in FACS buffer per well. Cells were washed again two times with FACS Buffer and re-suspended in FACS Buffer for analysis.
Fluorescence was analyzed by FACS using a FACS Fortessa (Software FACS Diva). Binding curves and EC₅₀ values were obtained using GraphPadPrism6.

T3 sequence (chain, as listed by the source limits assumed, chain 1 of 2): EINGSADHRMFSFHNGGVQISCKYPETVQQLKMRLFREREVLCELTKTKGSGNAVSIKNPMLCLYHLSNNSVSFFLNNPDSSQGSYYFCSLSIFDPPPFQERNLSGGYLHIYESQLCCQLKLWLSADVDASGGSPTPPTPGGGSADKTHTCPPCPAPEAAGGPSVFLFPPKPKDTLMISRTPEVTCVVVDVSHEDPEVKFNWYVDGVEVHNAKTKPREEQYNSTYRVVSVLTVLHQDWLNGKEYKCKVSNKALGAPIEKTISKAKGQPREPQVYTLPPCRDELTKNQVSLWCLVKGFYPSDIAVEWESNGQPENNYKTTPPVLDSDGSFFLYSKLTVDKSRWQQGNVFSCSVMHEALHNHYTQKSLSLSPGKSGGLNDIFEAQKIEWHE
T3 sequence (chain, as listed by the source limits assumed, chain 2 of 2): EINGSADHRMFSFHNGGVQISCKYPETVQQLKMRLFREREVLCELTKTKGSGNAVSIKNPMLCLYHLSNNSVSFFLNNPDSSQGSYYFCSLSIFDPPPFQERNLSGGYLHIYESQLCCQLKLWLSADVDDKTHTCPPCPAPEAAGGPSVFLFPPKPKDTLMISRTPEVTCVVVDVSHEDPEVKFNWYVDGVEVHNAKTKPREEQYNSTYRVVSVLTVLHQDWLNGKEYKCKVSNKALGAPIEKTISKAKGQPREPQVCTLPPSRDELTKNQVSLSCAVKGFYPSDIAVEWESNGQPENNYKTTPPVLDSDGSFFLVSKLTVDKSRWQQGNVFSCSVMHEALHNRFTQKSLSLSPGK

Row | Binder | Kd [1] [nM] | koff [1] [s⁻¹] | kon [1] [M⁻¹ s⁻¹] | Fold increase vs TCB only at 200 pM CEA-ICOS (% CD69^+CD4^+), Donor 1 (D1) (human ICOS [2]) [fold] | Fold increase vs TCB only at 200 pM CEA-ICOS (% CD69^+CD4^+), Donor 2 (D2) (human ICOS [2]) [fold] | Fold increase vs TCB only at 1000 pM CEA-ICOS (% CD69^+CD4^+), Donor 1 (D1) (human ICOS [2]) [fold] | Fold increase vs TCB only at 1000 pM CEA-ICOS (% CD69^+CD4^+), Donor 2 (D2) (human ICOS [2]) [fold] | EC50 [3] [nM] | EC50 (human ICOS [4]) [nM] | EC50 (human ICOS [5]) [nM] | EC50 (read off the curve) [6] [nM] | EC50 (read off the curve) (human CEA) [nM] | binding result [6]
1 | B1 | 180 | 0.0192 | 144000 | – | – | – | – | – | – | – | – | – | –
2 | B2 | – | – | – | 2.5 | 1.5 | 2.65 | 1.68 | 2.98 | 34.9 | 50.7 | ~3 | – | –
3 | B3 | – | – | – | 4.99 | 2.91 | 5.95 | 2.47 | – | – | – | – | ~0.05 | –
4 | B4 | – | – | – | 5.17 | 2.86 | 5.52 | 1.99 | – | – | – | – | ~0.5 | –
5 | B5 | – | – | – | – | – | – | – | – | 19.9 | 25.7 | – | – | no binding (tested: about 120000 pM)
6 | B6 | – | – | – | – | – | – | – | 6.73 | 42.6 | 56.4 | – | – | –
7 | B7 | – | – | – | 2.66 | 1.38 | 2.66 | 1.96 | 5.19 | 10.7 | 14.4 | – | – | –
8 | B8 | – | – | – | – | – | – | – | – | 9.99 | 12.4 | – | – | no binding (tested: about 120000 pM)
